Laboratory results as given in US20230348564A1, “ANTI-CANCER PROTEINS” (UNICHEM LABORATORIES LTD, priority 2020, published 2023).

Tests used:
[1] = tested on: Meningioma (IOMM-Lee); assay: cytotoxicity in Brain Tumor Cell lines by MTT assay; settings: 72 h
[2] = tested on: Glioblastoma (LN-18); assay: as above; type: cell-based, Human; settings: 72 h
Description: (§1) The SEQ ID NO. […] Untreated cells were used as control. […] Cells were incubated for 3 h at 37° C.

[3] = tested on: Neuroblastoma (SH-SY5Y); assay: as above; type: cell-based, Human; settings: 72 h
Description: as §1

[4] = tested on: PANC-1 (Human pancreatic epitheloid carcinoma); assay: MTT cytotoxicity assay; settings: 48h
Description: (§2) All the cancer cell lines were procured from National Centre for Cell Science, Pune (India). Cell lines were maintained under conditions as mentioned in Table 23. The cell lines were sub-cultured by trypsinization followed by splitting the cell suspension into fresh flasks and supplementing with fresh culture medium.
(§3) All the cell lines were grown in specified media at 37° C. with 95% Humidity and 5% CO2.
(§4) The cells were trypsinized, counted by Trypan blue method in Neuebauer's Chamber and plated in wells of flat bottom 96-well plate at the density corresponding to 10×10^3 cells/well/200 μL medium.
(§5) Following overnight incubation, the media in the plate was replenished with 180 μL/well and then the cells were treated with 20 μL of each test item at concentrations ranging from 2.5 μg/mL-80 μg/mL in triplicates, so that the total volume in each well is 200 μL.
(§6) The untreated cells served as negative control. The cells were incubated with the test items or positive control for a time period of 48h. Following incubation, the cell cytotoxicity was estimated using MTT assay. Absorbance was measured at 540 nm. The percentage cytotoxicity corresponding to each treatment was calculated using the formula:
(§7) % Cytotoxicity=(1−X/R)*100
(§8) Where X=absorbance of wells corresponding to treated cells R=absorbance of untreated cells (cells maintained in growth medium only)
(§9) IC50 value was calculated using Graph-Pad Prism version 4.01 software.

[5] = tested on: PBMCs (Peripheral blood mononuclear cells); assay: MTT cytotoxicity assay; settings: 48h
Description: as §2, §3, §4, §5, §6, §7, §8, §9

[6] = tested on: MDA-MB-231 (Human breast adenocarcinoma); assay: MTT cytotoxicity assay; settings: 48h
Description: as §2, §3, §4, §5, §6, §7, §8, §9

[7] = tested on: T-47D (Human mammary gland ductal carcinoma); assay: MTT cytotoxicity assay; settings: 48h
Description: as §2, §3, §4, §5, §6, §7, §8, §9

[8] = tested on: MDA-MB-453 (Human breast metastatic carcinoma); assay: MTT cytotoxicity assay; settings: 48h
Description: as §2, §3, §4, §5, §6, §7, §8, §9

[9] = tested on: MIA PaCa-2 (Human pancreatic carcinoma); assay: MTT cytotoxicity assay; settings: 48h
Description: as §2, §3, §4, §5, §6, §7, §8, §9

[10] = tested on: T24 (Human Bladder Cancer); assay: MTT cytotoxicity assay; settings: 48h
Description: as §2, §3, §4, §5, §6, §7, §8, §9

[11] = tested on: MCF-7 (Human breast adenocarcinoma); assay: MTT cytotoxicity assay; settings: 48h
Description: as §2, §3, §4, §5, §6, §7, §8, §9

[12] = tested on: PKC/Ca2+; assay: SelectScreen Cell-based Pathway Profiling (GeneBLAzer bla reporter); set-up: species or system Human
Description: (§10) The mechanism of action of the recombinant lectin having the amino acid sequence of SEQ ID NO.2 is studied by determining its effect on the modulation of key signaling pathways involved in the pathogenesis of cancer. The study was performed using SelectScreen® Cell-based Pathway Profiling Services at Life Technologies, USA. Modulatory effect of Lectin having the amino acid sequence of SEQ ID NO. 2 on various cell signaling pathways was investigated in cell lines overexpressing specific markers using GeneBLAzer Beta-lactamase (bla) Reporter Technology and Tango platforms. The cell lines tested were MDA-MB-231 (Human Breast cancer), KB (Human Cervical cancer), PA-1 (Human ovarian cancer), PANC-1 (Human pancreatic cancer), HT-29 (Human colorectal cancer), T-24 (Human Bladder cancer)
(§11) 10 mg of recombinant lectin having the amino acid sequence of SEQ ID NO.2 was dissolved in 200 μL of TBS buffer (25 mM, pH 8.0) to obtain stock solution of 50 mg/mL. The stock solutions were diluted in Serum Free Medium (STM) to achieve final concentrations in cells ranging from 0.00158 μg/mL-50 μg/mL. Cells (32 μL) were diluted in Assay Media to appropriate cell density and were added to the assay plate. Cells were incubated at 37° C./5% CO2 for 24 h. 40 nL of 1000×sample and 4 μL of assay medium was added to the cells in the assay plate and incubated for 30 minutes at 37° C./5% CO2 in a humidified incubator. Then, 4 μL of the 10×EC80 concentration of activator was added to all wells containing sample to bring the final assay volume to 40 μL. The assay plate was incubated for 16 hours at 37° C./5% CO2 in a humidified incubator. Further, 8 μL of the Substrate Loading Solution (LiveBLAzer™—FRET B/G) was added to the assay plate. The assay plate was incubated for 2 hours at room temperature, in the dark. The assay plate was read on a fluorescence plate reader (Tecan Safire2). Fluorescence emission values at 460 nm and 530 nm were obtained using a standard florescence plate reader and % modulation was determined.
(§12) % Modulation=[(A−B)/A]*100
(§13) Where, A=Fluorescence reading in Control (untreated cells) B=Fluorescence reading in TI treated cells

[13] = tested on: TNF-alpha/JNK; assay: as above; set-up: species or system Human; settings: 0.5 μg/mL-50 μg/mL
Description: as §10, §11, §12, §13

[14] = tested on: NF-KB; assay: as above; set-up: species or system Human; settings: 0.5 μg/mL-50 μg/mL
Description: as §10, §11, §12, §13

[15] = tested on: ADBR1; assay: as above; set-up: species or system Human; settings: 0.158 μg/mL-50 μg/mL
Description: as §10, §11, §12, §13

[16] = tested on: PI3K/AKT/FOXO3; assay: as above; set-up: species or system Human; settings: 0.5 μg/mL-50 μg/mL
Description: as §10, §11, §12, §13

[17] = tested on: IL-4/STAT6; assay: as above; set-up: species or system Human; settings: 0.0158 μg/mL-0.5 μg/mL
Description: as §10, §11, §12, §13

[18] = tested on: CCR5; assay: as above; set-up: species or system Human; settings: 0.058 μg/mL-50 μg/mL
Description: as §10, §11, §12, §13

[19] = tested on: MAPK/EGFR/Ras/Raf; assay: as above; set-up: species or system Human; settings: 0.158 μg/mL-50 μg/mL
Description: as §10, §11, §12, §13

[20] = tested on: PANC-1

B1: SEQ ID NO. 2: recombinant lectin; variant of the S. rolfsii lectin amino acid sequence (reported as Rec-2 in WO 2010/095143) (protein)
chain: TYKITVRVYQTNPDAFFHPVEKTVWKYANGGTWTITDDQHVLTMGGSGTSGTLRFHADNGESFTATFGVHNYKRWCDIVTNLAADETGMVINQQYYSQKNREEARERQLSNYQVKNAKGRNFQIVYTEAEGNDLHANLIIG
modifications: In vitro synthesis
- IC50 Value [1]: 18.37 µg/mL
- % of cytotoxicity ([2]; 2.5 μg/mL-100 μg/mL): 39.6%-75.3%
- IC50 Value [2]: 4.35 µg/mL
- % of cytotoxicity ([3]; 2.5 μg/mL-100 μg/mL): 10.3%-46.9%
- IC50 Value [3]: >100 µg/mL
- IC50 [4]: 24.3 µg/mL
- IC50 [5]: >80 µg/mL
- IC50 [6]: 9.7 µg/mL
- IC50 [7]: >80 µg/mL
- IC50 [8]: >80 µg/mL
- IC50 [9]: >80 µg/mL
- IC50 [10]: 10.4 µg/mL
- IC50 [11]: >80 µg/mL
- effective inhibition ([12]; 0.00158 μg/mL to 0.5 μg/mL): 5% to 19%
- Effect (wrt control), inhibition ([12]; 0.00158 μg/mL-0.158 μg/mL): 5%-19% inhibition
- Effect (wrt control), inhibition [13]: 12%-45% inhibition
- Effect (wrt control), inhibition ([13]; listed as recombinant lectin): 12% to 45%
- Effect (wrt control), inhibition [14]: 3%-13% inhibition
- Effect (wrt control), inhibition ([14]; listed as recombinant lectin): 3% to 13%
- Effect (wrt control), inhibition [15]: 26%-49% inhibition
- Effect (wrt control), inhibition ([15]; listed as recombinant lectin): 26% to 49%
- Effect (wrt control), inhibition [16]: 2%-73% inhibition
- Effect (wrt control), inhibition ([16]; listed as recombinant lectin): 2% to 73%
- Effect (wrt control), inhibition [17]: 16%-28% inhibition
- Effect (wrt control), inhibition ([17]; listed as recombinant lectin): 16% to 28%
- Effect (wrt control), inhibition [18]: 21%-70% inhibition
- Effect (wrt control), inhibition ([18]; listed as recombinant lectin): 21%-70%
- Effect (wrt control), inhibition [19]: 2%-48% inhibition
- Effect (wrt control), inhibition ([19]; listed as recombinant lectin): 2% to 48%
- % Cytotoxicity [20]: 60.8%
